Patent US20160324962A1, “COMPOSITIONS AND METHODS FOR TREATING SARCOMA” (MEDIMMUNE, LLC, priority 2013, published 2016)

What was measured:
clone 32 (C32) tumors = assay: Growth of implanted tumors in mice; format: in vivo; settings: C32 tumors overexpressing hIGF II and hIGF-1R
Description: (§1) MEDI 573 selectively binds to human insulin-like growth factor (hIGF)-I and hIGF-2 and […]. MEDI-573 targets the IGF-1 and IGF-2 ligands and thereby inhibits IGF-mediated signal transduction. […] Furthermore, MEDI-573 has potential to achieve this without perturbing glucose homeostasis, which has been an adverse effect observed with investigational agents that target IGF 1R. The results of in vitro studies have shown that MEDI-573 inhibited both IGF-1 and IGF-2-stimulated phosphorylation of IGF 1R and that of downstream signaling proteins including Akt and MAPK in a number of engineered mouse embryonic fibroblast NIH-3T3 cell lines transfected to express human IGF-1R and either human IGF-1/-2. Furthermore, MEDI-573 inhibited autocrine phosphorylation of these signaling molecules.

clone P12 (P12) tumors = assay: Growth of implanted tumors in mice; format: in vivo; settings: P12 tumors overexpressing hIGF-1 and hIGF-1R
Description: as §1

p4EBP1 [1] = assay: Immunoblot of cell lysates after MEDI-573, mTORi, combination; format: cell-based; settings: single agent, 4 hours
Protocol: (§2) To examine the effect of MEDI-573, mTORi, and combination of both on IGF signaling, RD-ES, SJSA-1, and KHOS cells were treated with these agents for 4 hours. After separation of the cell lysates by gel electrophoresis, the proteins were detected by immunoblotting.

pS6K = assay: as above; format: cell-based; settings: RD-ES and SJSA-1 cells, 4 hours
Protocol: as §2

IR-A phosphorylation = assay: pIR-A assay in sarcoma cells (MSD); format: cell-based
Protocol: (§3) When exogenous IGF-1 or IGF-2 was added to cells, there was an induction of phosphorylation of IGF-1R and IR-A in all cells examined.
(§4) The sarcoma lines were cultured overnight in complete medium. The following day, medium containing 0.1% charcoal stripped fetal bovine serum (FBS) was added to the cultures and the cultures incubated overnight. The next day, cells were treated with various treatments for 5 minutes. Media was removed; cells were washed and lysed with 1.0% Triton X lysis buffer with protease and phosphatase inhibitors. Approximately 8-20 μg of total protein was loaded on MSD 96-Well MULTI-SPOT plates and the level of total and phosphorylated IGF-1R, IR-A and IRS-1 protein was determined using the Insulin Signaling Panel (total protein) and Insulin Signaling Panel (phosphoprotein) Whole Cell Lysate kits according to the manufacturers protocol. The level of total and phosphorylated AKT was determined using the Phospho (Ser473)/Total AKT Assay Whole Cell Lysate kit according to manufacturer's standard protocol.

IGF 1R phosphorylation = assay: IGF-stimulated phosphorylation in engineered NIH-3T3 cell lines; format: cell-based; settings: NIH-3T3 cell lines expressing human IGF-1R and human IGF-1/-2
Description: as §1

Akt phosphorylation = assay: pAKT assay in sarcoma cells (MSD); format: cell-based; settings: RD-ES, TC-71, SK-ES-1, and SJSA-1 cells
Protocol: as §3, §4

IGF-1 in RD-ES tumors = molecular target: T1, IGF-1 in RD-ES tumors (Homo sapiens, UniProt P05019); assay: Free IGF ligands in xenograft tumors (ELISA); format: in vivo, mice; settings: different amounts of MEDI-573
T1 construct: endogenous in cells; host or cells: RD-ES (Ewing's sarcoma) xenograft tumors in athymic nude mice
Protocol: (§5) Free IGF ligands were measured in xenograft tumors in untreated mice and in mice treated with different amounts of MEDI-573. […] Despite KHOS cells being unresponsive to IGF-1 and/or IGF-2 stimulation, IGF-2 levels were examined in a KHOS/NP model.
(§6) Sarcoma cell lines were purchased from American type Culture Collection (Manassas, Va.). CellTiter-Glo reagents were obtained from Promega (Madison, Wis.). Whole cell lysate kits for pIGF-1R, pIR-A, and pAKT were purchased from Meso Scale Discovery (MSD; Rockville, Md.). ELISA kits for total IGF-1 and IGF-1R were purchased from R&D Systems (Minneapolis, Minn.). ELISA kits for total IGF-2 were purchased from Insight Genomics (Falls Church, Va.). An ELISA kit for detecting free IGF-1 and IGF-2 was developed in house. Human IGF-1 and IGF-2 were obtained from R&D Systems (Minneapolis, Minn.). Antibodies for detecting phospho-AKT, phospho-4EBP1, phospho-S6K, and GAPDH were from Cell Signaling Technology (Beverly, Mass.).

[2] = molecular target: T2, human IGF-2 in KHOS/NP model (Homo sapiens, UniProt P01344); assay: Free IGF ligands in xenograft tumors (ELISA); format: in vivo, mouse xenograft; settings: up to 60 mg/kg
T2 construct: endogenous in cells; host or cells: KHOS/NP (osteosarcoma) xenograft tumors in athymic nude mice
Protocol: as §5, §6

IGF-2 in SJSA-1 tumors = molecular target: T3, IGF-2 in SJSA-1 tumors (Homo sapiens, UniProt P01344); assay: Free IGF ligands in xenograft tumors (ELISA); format: in vivo, mouse xenograft; settings: even at the lowest dose of 10 mg/kg
T3 construct: endogenous in cells; host or cells: SJSA-1 (osteosarcoma) xenograft tumors in athymic nude mice
Protocol: as §5, §6

[3] = system: engineered NIH3T3 and human tumor cell lines; assay: In vitro growth of engineered and tumor cell lines; format: cell-based
Description: as §1

RD-ES cells = assay: Cytotoxicity assay, MEDI-573 and mTOR inhibitors; format: cell-based; settings: agents alone or in combination (FIG. 14)
pAKT = assay: In vivo mechanism of action study, immunoblot of tumors; set-up: species or system mice
Protocol: (§7) The in vivo effects of MEDI-573 on IGF signaling were also examined in sarcoma xenografts. To be consistent with in vitro experiments, in vivo pharmacodynamic studies were performed in two ways. First, the effect of MEDI-573 on signaling that was induced by IGF ligands, which were secreted by tumors in an autocrine manner, was examined. A single dose of MEDI-573 was given to mice bearing ˜400 mm^3 RD-ES, SJSA-1, or KHOS/NP tumors.
(§8) IGF-1/-2 injection did change the baseline level of p4EBP-1.
(§9) For in vivo mechanism of action (MOA) studies, when tumors reached approximately 400 mm^3, a single dose of MEDI-573 was given. Tumor and plasma samples were collected 4 hr after dosing to assess the effect of MEDI-573 on autocrine IGF signaling. In another set of mice, 6 hr after MEDI-573 dosing, human IGF-1 or IGF-2 was injected by tail-vein. Tumor and plasma samples were collected 15 min after IGFs injection to assess the effect of MEDI-573 on IGF-1/-2 induced signaling.

p4EBP1 [4] = assay: as above; set-up: species or system mice
Protocol: as §7, §8, §9

[5] = RD-ES tumors ~400 mm^3, single dose, 4 hr after dosing
[6] = RD-ES-bearing mice injected with human IGF-1/-2, MEDI-573 pretreatment

T2 sequence (P01344 25-91): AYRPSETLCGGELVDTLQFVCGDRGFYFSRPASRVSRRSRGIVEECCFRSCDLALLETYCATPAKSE
T3 sequence (P01344 25-91): as above
T1 sequence (P05019 49-118): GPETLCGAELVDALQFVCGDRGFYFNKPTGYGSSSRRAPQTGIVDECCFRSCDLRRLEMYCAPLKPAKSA

B1: MEDI-573: fully human monoclonal IgG2 lambda antibody that binds IGF-2 with cross reactivity to IGF-1; hybridoma 7.159.2, ATCC PTA-7424 (antibody)
heavy: QVQLVQSGAEVKKPGASVKVSCKASGYTFTSYDINWVRQATGQGLEWMGWMNPNSGNTGYAQKFQGRVTMTRNTSISTAYMELSSLRSEDTAVYYCARDPYYYYYGMDVWGQGTTVTVSSASTKGPSVFPLAPCSRSTSESTAALGCLVKDYFPEPVTVSWNSGALTSGVHTFPAVLQSSGLYSLSSVVTVPSSNFGTQTYTCNVDHKPSNTKVDKTVERKCCVECPPCPAPPVAGPSVFLFPPKPKDTLMISRTPEVTCVVVDVSHEDPEVQFNWYVDGVEVHNAKTKPREEQFNSTFRVVSVLTVVHQDWLNGKEYKCKVSNKGLPAPIEKTISKTKGQPREPQVYTLPPSREEMTKNQVSLTCLVKGFYPSDIAVEWESNGQPENNYKTTPPMLDSDGSFFLYSKLTVDKSRWQQGNVFSCSVMHEALHNHYTQKSLSLSPGK
light: QSVLTQPPSVSAAPGQKVTISCSGSSSNIENNHVSWYQQLPGTAPKLLIYDNNKRPSGIPDRFSGSKSGTSATLGITGLQTGDEADYYCETWDTSLSAGRVFGGGTKLTVLGQPKAAPSVTLFPPSSEELQANKATLVCLISDFYPGAVTVAWKADSSPVKAGVETTTPSKQSNNKYAASSYLSLTPEQWKSHRSYSCQVTHEGSTVEKTVAPTECS
- growth of implanted tumors (clone 32 (C32) tumors): significantly inhibited the growth
- growth of implanted tumors (clone P12 (P12) tumors): significantly inhibited the growth
- phosphorylation of 4EBP1 (p4EBP1 [1]): did not have effect
- phosphorylation of S6K (pS6K): inhibited phosphorylation of S6K
- autophosphorylation of IR-A (IR-A phosphorylation; KHOS cells): not in KHOS cells
- autophosphorylation of IR-A (IR-A phosphorylation; RD-ES, TC-71, SK-ES-1, and SJSA-1 cells): inhibited autophosphorylation
- IGF-1/-2-induced activation of IR-A (IR-A phosphorylation; pretreatment with MEDI-573, exogenous IGF-1 or IGF-2): inhibited
- IGF-1 and IGF-2-stimulated phosphorylation of IGF 1R (IGF 1R phosphorylation): inhibited
- IGF-1 and IGF-2 stimulated phosphorylation of Akt (Akt phosphorylation): blocks this effect
- autophosphorylation of Akt (Akt phosphorylation): inhibited autophosphorylation
- free IGF-1 in tumors (IGF-1 in RD-ES tumors): dose-dependent suppression
- human IGF-2 levels in tumors [2]: Dose-dependent inhibition
- free IGF-2 in tumors (IGF-2 in SJSA-1 tumors): almost completely neutralized
- growth in vitro [3]: effectively inhibited the growth
- decrease in cell viability (RD-ES cells): 56%
- autophosphorylation of pAKT in tumors (pAKT; KHOS/NP tumors, single dose): not in KHOS/NP tumors
- autophosphorylation of pAKT in tumors (pAKT; [5]): inhibited autophosphorylation
- IGF-induced pAKT in tumors (pAKT; [6]): dramatic reduction
- phosphorylated p4EBP1 in tumors (p4EBP1 [4]; KHOS/NP tumors, single dose): not in KHOS/NP tumors
- phosphorylated p4EBP1 in tumors (p4EBP1 [4]; [5]): inhibited
- p4EBP-1 in tumors (p4EBP1 [4]; [6]): inhibited p4EBP-1 even below the baseline level
